The labels stand for the following.
B1: Tyrosine-protein kinase Lck, residues 63 to 120; numbered along this chain, P06239 (parent)
chain: DNLVIALHSYEPSHDGDLGFEKGEQLRILEQSGEWWKAQSLTTGQEGFIPFNFVAKAN
B2: Gamma-crystallin C, residues 4 to 79; numbered along this chain, P07315 (parent)
chain: ITFYEDRAFQGRSYETTTDCPNLQPYFSRCNSIRVESGCWMLYERPNYQGQQYLLRRGEYPDYQQWMGLSDSIRSC

± gives the uncertainty stated by the source.

Variants of B1 are the subject of one series. Kind of series: abundance fitness (aPCA) (normalised: wild type 0, dead -1); higher = more abundant; growth selection in yeast, the domain comes from the species named. To be noted: Homo sapiens.
Turning to A55K, the abundance fitness is -0.154 ± 0.13.
The same measure, in the same setting: in the case of A55F it was -0.369 ± 0.13.
As for A55V, the abundance fitness was -0.021 ± 0.076.
Take A55E: the abundance fitness was determined as 0.037 ± 0.09.
For the variant A55G, the abundance fitness was -0.007 ± 0.057.
In the case of A55D, the abundance fitness is -0.102 ± 0.11.
Take A55P: the abundance fitness is -0.835 ± 0.18.
On to A55C, for which the abundance fitness was -0.141 ± 0.12.
Still for that read-out and setting: the result for A55Y reads -0.261 ± 0.19; that for A55W, -0.515 ± 0.11; that for A55R, -0.019 ± 0.06.
Take A55H: the abundance fitness is -0.27 ± 0.12.
For A55N, the abundance fitness is -0.231 ± 0.19.
A55Q: the abundance fitness worked out at 0.04 ± 0.14.
Still for that read-out and setting: the result for A55L reads -0.4 ± 0.1.
For the variant A55I, the abundance fitness is -0.084 ± 0.14.
For the variant A55T, the abundance fitness is -0.013 ± 0.1.
In the case of A55M, the abundance fitness was -0.12 ± 0.12.
For the variant K56S, the abundance fitness is -0.002 ± 0.085.
The same measure, in the same setting: in the case of K56F it was -0.087 ± 0.085.
On the same count and under the same terms, in the case of K56L it was -0.217 ± 0.078.
Take K56E: the abundance fitness was determined as 0.022 ± 0.12.
On to K56G, for which the abundance fitness is -0.123 ± 0.066.
The same measure, in the same setting: the result for K56T reads -0.095 ± 0.099; that for K56Q, -0.174 ± 0.11.
Consider K56C, for which the abundance fitness was -0.117 ± 0.099.
In the case of K56W, the abundance fitness is -0.095 ± 0.1.
With K56N, the abundance fitness stood at 0.055 ± 0.16.
On the same count and under the same terms, in the case of K56P it was 0.04 ± 0.095.
Turning to K56Y, the abundance fitness was -0.138 ± 0.12.
K56A: the abundance fitness came out at 0.019 ± 0.085.
Take K56M: the abundance fitness was -0.146 ± 0.11.
The same measure, in the same setting: the result for K56V reads -0.118 ± 0.085.
As to K56D, the abundance fitness was -0.108 ± 0.11.
With K56H, the abundance fitness is 0.015 ± 0.12.
Take K56R: the abundance fitness is -0.09 ± 0.067.
K56I: the abundance fitness was -0.233 ± 0.13.
Consider I49T, for which the abundance fitness was -0.622 ± 0.14.
As for I49F, the abundance fitness was -0.427 ± 0.16.
I49P: the abundance fitness is -0.759 ± 0.17.
As to I49H, the abundance fitness was -0.794 ± 0.23.
Take I49G: the abundance fitness was -0.905 ± 0.11.
On the same count and under the same terms, in the case of I49R it was -0.792 ± 0.079.
For I49A, the abundance fitness is -0.646 ± 0.11.
As for I49C, the abundance fitness is -0.67 ± 0.15.
Regarding I49N, the abundance fitness is -0.828 ± 0.21.
Consider I49M, for which the abundance fitness is -0.663 ± 0.24.
I49D: the abundance fitness is -0.801 ± 0.18.
For the variant I49Q, the abundance fitness was -0.796 ± 0.17.
With I49E, the abundance fitness was -0.996 ± 0.14.
Still for that read-out and setting: the result for I49L reads -0.367 ± 0.079; that for I49K, -0.771 ± 0.18; that for I49S, -0.939 ± 0.12.
As for I49V, the abundance fitness was -0.094 ± 0.071.
On the same count and under the same terms, in the case of I49W it was -0.967 ± 0.13.
For the variant I49Y, the abundance fitness is -1.2 ± 0.28.
F48M: the abundance fitness was -0.063 ± 0.092.
As for F48I, the abundance fitness is -0.264 ± 0.18.
With F48E, the abundance fitness was -0.286 ± 0.085.
In the case of F48W, the abundance fitness came to 0.075 ± 0.077.
Same read-out and setting: in the case of F48K it was 0.115 ± 0.096.
For the variant F48L, the abundance fitness is 0.019 ± 0.07.
Same read-out and setting: in the case of F48V it was -0.096 ± 0.064; in that of F48G, -0.576 ± 0.063.
As to F48S, the abundance fitness was -0.308 ± 0.079.
In the case of F48H, the abundance fitness is -0.172 ± 0.17.
In the case of F48P, the abundance fitness is -0.52 ± 0.12.
Same read-out and setting: in the case of F48Q it was -0.274 ± 0.12.
With F48D, the abundance fitness is -0.559 ± 0.14.
Consider F48R, for which the abundance fitness was 0.011 ± 0.062.
Turning to F48T, the abundance fitness is -0.115 ± 0.11.
F48A: the abundance fitness is -0.235 ± 0.081.

Variants of B2 are the subject of another series. The description is as above. To be noted: Homo sapiens.
Consider ITFYEDRAFQGRSYETTTDCPNLQPYFSRCNSQRVESGCWMLYERPNYQGQQYLLRRGEYPDYQQWMGLSDSIRSC, for which the abundance fitness is -0.792 ± 0.27.
ITFYEDRAFQGRSYETTTDCPNLQPYFSRCNSPRVESGCWMLYERPNYQGQQYLLRRGEYPDYQQWMGLSDSIRSC: the abundance fitness is -0.756 ± 0.19.
ITFYEDRAFQGRSYETTTDCPNLQPYFSRCNSIRVESGCWMLYELPNYQGQQYLLRRGEYPDYQQWMGLSDSIRSC: the abundance fitness is -0.146 ± 0.13.
For the variant ITFYEDRAFQGRSYETITDCPNLQPYFSRCNSIRVESGCWMLYERPNYQGQQYLLRRGEYPDYQQWMGLSDSIRSC, the abundance fitness is -0.227 ± 0.2.
Consider ITFYEDRAFQGRSYETFTDCPNLQPYFSRCNSIRVESGCWMLYERPNYQGQQYLLRRGEYPDYQQWMGLSDSIRSC, for which the abundance fitness is -0.152 ± 0.14.
Consider ITFYEDRAFQGRSYETTTDCPNLQPYFSRCNSIRAESGCWMLYERPNYQGQQYLLRRGEYPDYQQWMGLSDSIRSC, for which the abundance fitness is -0.422 ± 0.11.
Still for that read-out and setting: the result for ITFYEDRAFQGRSYETTTDCPNLQPYFSRCNSIRVESGCWMLYERPNYQGQQYLLRRGEYPDYQQWMGTSDSIRSC reads 0.047 ± 0.085; that for ITFYEDRAFQGRSYETTTDCPNLQPYFSRCNSIRVESGCWMLYERPNYQGQQYLLRRGEYPDYQQWEGLSDSIRSC, -0.131 ± 0.081; that for ITFYEDRAFQGRSYETTTDCPNLQPYFSRCNSIRVESGCWMLYERPNYQGQQYLLRAGEYPDYQQWMGLSDSIRSC, 0.046 ± 0.12.
For ITFYEDRAFQGRSYETTTDCPNLQPYFSRCNSIRVESGCWMLYERPNYQGQQYLLRLGEYPDYQQWMGLSDSIRSC, the abundance fitness was -0.059 ± 0.081.
As to ITFYEDRAFQGRSYETTTDCPNLQPYASRCNSIRVESGCWMLYERPNYQGQQYLLRRGEYPDYQQWMGLSDSIRSC, the abundance fitness is 0.124 ± 0.11.
Still for that read-out and setting: the result for ITFYEDRAFQGRSYETTTDCPNLQPYCSRCNSIRVESGCWMLYERPNYQGQQYLLRRGEYPDYQQWMGLSDSIRSC reads -0.203 ± 0.17; that for ITFYEDRAFQGRSYETTTDCPNLQPYFSRCNSIRVESGCWMLYERPNYQGQQYLLRRGEYPDYQQWMGLSDSRRSC, -0.854 ± 0.1.
As for ITFYEDRAFQGRSYETTTDCPNLQPYFSRCNSIRVESGCWMLYERPNYQGQQYLMRRGEYPDYQQWMGLSDSIRSC, the abundance fitness is -0.237 ± 0.12.
Turning to ITFYEDRAFQGRSYETTTDCPNLQPYFSRCNSIRVESGCWMLYERPNYQGQQYLLRRGEYPDYQQWMGLSDSIRLC, the abundance fitness was determined as 0.044 ± 0.068.
For the variant ITFYEDRAFQGRSYETTTDCPNLQPYFSRCNSIRVESGCWMLYERPNYQGQQYLLRRSEYPDYQQWMGLSDSIRSC, the abundance fitness is -0.039 ± 0.081.
ITFYEDRAFQGRSYETTTDCPNLQPYFSRCNSIRVESGCWMLYERPNYQGQQYLLQRGEYPDYQQWMGLSDSIRSC: the abundance fitness is -0.003 ± 0.2.
With ITFYEDRAFQGRSYETTTDCPNLQPYFSRCNSIRVESGCWMLYERPNYQGQQYLLRRGEYPDYQLWMGLSDSIRSC, the abundance fitness is -0.088 ± 0.064.
Consider ITFYEDRAFQGRSYETTTDCPNLQPYFSRCNSIRVESGCWMLYIRPNYQGQQYLLRRGEYPDYQQWMGLSDSIRSC, for which the abundance fitness was -0.02 ± 0.26.
Consider ITFYETRAFQGRSYETTTDCPNLQPYFSRCNSIRVESGCWMLYERPNYQGQQYLLRRGEYPDYQQWMGLSDSIRSC, for which the abundance fitness was 0.057 ± 0.13.
The same measure, in the same setting: the result for ITFYEDRAFQGRSYETTTDCPNLQPYFSRCNSIRVESGCWMLYERPNYQGQQYMLRRGEYPDYQQWMGLSDSIRSC reads -0.044 ± 0.089; that for ITFYEDRAFQGRSYETTTDCPNLQPYFSRCNSIRVESGCWMLYERPNYQGQQYWLRRGEYPDYQQWMGLSDSIRSC, -0.073 ± 0.13; that for ITFYEDRAFQGRSYETTTDCPNLQPYFSRCNSIRVESGCWMLHERPNYQGQQYLLRRGEYPDYQQWMGLSDSIRSC, 0.055 ± 0.11.
In the case of ITFYEDRAFQGISYETTTDCPNLQPYFSRCNSIRVESGCWMLYERPNYQGQQYLLRRGEYPDYQQWMGLSDSIRSC, the abundance fitness was 0.017 ± 0.077.
With ITFYTDRAFQGRSYETTTDCPNLQPYFSRCNSIRVESGCWMLYERPNYQGQQYLLRRGEYPDYQQWMGLSDSIRSC, the abundance fitness was -0.156 ± 0.078.
Take ITFYEDRAFQGRSYETTTLCPNLQPYFSRCNSIRVESGCWMLYERPNYQGQQYLLRRGEYPDYQQWMGLSDSIRSC: the abundance fitness worked out at 0.042 ± 0.1.
Still for that read-out and setting: in the case of ITFYEDRAFQGRSYEWTTDCPNLQPYFSRCNSIRVESGCWMLYERPNYQGQQYLLRRGEYPDYQQWMGLSDSIRSC it was 0.012 ± 0.085.
Take ITFYEDRALQGRSYETTTDCPNLQPYFSRCNSIRVESGCWMLYERPNYQGQQYLLRRGEYPDYQQWMGLSDSIRSC: the abundance fitness came out at 0.12 ± 0.16.
Regarding ITFYEDRAAQGRSYETTTDCPNLQPYFSRCNSIRVESGCWMLYERPNYQGQQYLLRRGEYPDYQQWMGLSDSIRSC, the abundance fitness is -0.139 ± 0.15.
For ITFYEDRATQGRSYETTTDCPNLQPYFSRCNSIRVESGCWMLYERPNYQGQQYLLRRGEYPDYQQWMGLSDSIRSC, the abundance fitness was -0.56 ± 0.3.
With ITFYEDRAFQGRSYETTLDCPNLQPYFSRCNSIRVESGCWMLYERPNYQGQQYLLRRGEYPDYQQWMGLSDSIRSC, the abundance fitness is -0.023 ± 0.084.
Consider ITGYEDRAFQGRSYETTTDCPNLQPYFSRCNSIRVESGCWMLYERPNYQGQQYLLRRGEYPDYQQWMGLSDSIRSC, for which the abundance fitness was -1.23 ± 0.23.
For ITNYEDRAFQGRSYETTTDCPNLQPYFSRCNSIRVESGCWMLYERPNYQGQQYLLRRGEYPDYQQWMGLSDSIRSC, the abundance fitness was -0.826 ± 0.21.
As to ITFYEDRAFQGRSYETTTDCPNLQPYFSRCNSIRVESGCWMLYERPNYQGQQYLLRRGEYPDYQQWMGLSHSIRSC, the abundance fitness is -0.092 ± 0.1.

Values taken from the Human Domainome abundance scans (Beltran et al. 2025).
